For test [1], the target named is transmembrane proteins of the replication complex. Put plainly: cell-based or functional assay.
Test [2] shares this target. As to the kind of experiment: cell-based or functional assay. This is another data set of the same source.

Like-named read-outs stand apart in the source and are kept apart here.

In test [1], “DEN2 NS1 F160A (from UniProt P29990 776-1127)” registered a Plaque size of 1 mm and a Titer (PFU/mL) of 6000 PFU/mL.

B1: Dengue virus type 2 (DEN2; 16681) nonstructural protein 1 (NS1), recombinant, full-length, glycosylated, P29990 776-1127 (protein)
chain: DSGCVVSWKNKELKCGSGIFITDNVHTWTEQYKFQPESPSKLASAIQKAHEEGICGIRSVTRLENLMWKQITPELNHILSENEVKLTIMTGDIKGIMQAGKRSLRPQPTELKYSWKTWGKAKMLSTESHNQTFLIDGPETAECPNTNRAWNSLEVEDYGFGVFTTNIWLKLKEKQDVFCDSKLMSAAIKDNRAVHADMGYWIESALNDTWKIEKASFIEVKNCHWPKSHTLWSNGVLESEMIIPKNLAGPVSQHNYRPGYHTQITGPWHLGKLEMDFDFCDGTTVVVTEDCGNRGPSLRTTTASGKLITEWCCRSCTLPPLRYRGEDGCWYGMEIRPLKEKEENLVNSLVTA
In test [2], B1 registered a Plaque size of 3 mm and a Titer (PFU/mL) of 4.8e+06 PFU/mL.
